Results on three molecules are retold here after article PMC2918688 (Molecular immunology, 2010).

First the molecules themselves.
B3: purified cJun (natural protein, human, UniProt P05412 1-331, looked up)
chain: MTAKMETTFYDDALNASFLPSESGPYGYSNPKILKQSMTLNLADPVGSLKPHLRAKNSDLLTSPDVGLLKLASPELERLIIQSSNGHITTTPTPTQFLCPKNVTDEQEGFAEGFVRALAELHSQNTLPSVTSAAQPVNGAGMVAPAVASVAGGSGSGGFSASLHSEPPVYANLSNFNPGALSSGGGAPSYGAAGLAFPAQPQQQQQPPHHLPQQMPVQHPRLQALKEEPQTVPEMPGETPPLSPIDMESQERIKAERKRMRNRIAASKCRKRKLERIARLEEKVKTLKAQNSELASTANMLREQVAQLKQKVMNHVNSGCQLMLTQQLQTF

What all share (experiment): pull-down
For assay [1], the target named is T1, HA-NFATc2 (human, UniProt Q13469-2 1-921).
T1 sequence (looked up): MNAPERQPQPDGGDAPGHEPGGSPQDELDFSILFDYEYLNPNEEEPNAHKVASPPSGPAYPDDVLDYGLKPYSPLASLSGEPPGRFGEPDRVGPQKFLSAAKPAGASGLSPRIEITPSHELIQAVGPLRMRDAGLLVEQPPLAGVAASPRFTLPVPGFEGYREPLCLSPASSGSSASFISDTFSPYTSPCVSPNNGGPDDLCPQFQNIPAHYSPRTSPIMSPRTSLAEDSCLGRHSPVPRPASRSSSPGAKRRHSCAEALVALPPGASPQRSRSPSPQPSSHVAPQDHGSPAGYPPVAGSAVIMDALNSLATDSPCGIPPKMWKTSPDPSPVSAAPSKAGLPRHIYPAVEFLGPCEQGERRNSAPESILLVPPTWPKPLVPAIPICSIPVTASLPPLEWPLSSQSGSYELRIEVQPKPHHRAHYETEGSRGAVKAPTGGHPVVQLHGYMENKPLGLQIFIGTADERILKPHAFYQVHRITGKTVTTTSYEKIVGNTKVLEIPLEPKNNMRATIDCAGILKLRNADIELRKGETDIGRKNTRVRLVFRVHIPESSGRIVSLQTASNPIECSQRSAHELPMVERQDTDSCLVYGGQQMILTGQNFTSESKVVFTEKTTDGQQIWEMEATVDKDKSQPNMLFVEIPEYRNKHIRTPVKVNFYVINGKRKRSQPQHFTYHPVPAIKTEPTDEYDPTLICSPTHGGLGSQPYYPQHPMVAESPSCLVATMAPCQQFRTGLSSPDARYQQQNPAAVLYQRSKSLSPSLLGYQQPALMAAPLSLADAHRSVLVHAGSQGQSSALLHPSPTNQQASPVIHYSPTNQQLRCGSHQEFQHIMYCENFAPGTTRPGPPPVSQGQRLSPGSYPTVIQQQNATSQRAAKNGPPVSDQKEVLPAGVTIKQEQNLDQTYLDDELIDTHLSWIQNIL

Assay [2] deals with B3.
Assay [3] has as its target T2, GST-NFATc2 (full-length) (human, UniProt Q13469-2 1-921).
T2 sequence (looked up): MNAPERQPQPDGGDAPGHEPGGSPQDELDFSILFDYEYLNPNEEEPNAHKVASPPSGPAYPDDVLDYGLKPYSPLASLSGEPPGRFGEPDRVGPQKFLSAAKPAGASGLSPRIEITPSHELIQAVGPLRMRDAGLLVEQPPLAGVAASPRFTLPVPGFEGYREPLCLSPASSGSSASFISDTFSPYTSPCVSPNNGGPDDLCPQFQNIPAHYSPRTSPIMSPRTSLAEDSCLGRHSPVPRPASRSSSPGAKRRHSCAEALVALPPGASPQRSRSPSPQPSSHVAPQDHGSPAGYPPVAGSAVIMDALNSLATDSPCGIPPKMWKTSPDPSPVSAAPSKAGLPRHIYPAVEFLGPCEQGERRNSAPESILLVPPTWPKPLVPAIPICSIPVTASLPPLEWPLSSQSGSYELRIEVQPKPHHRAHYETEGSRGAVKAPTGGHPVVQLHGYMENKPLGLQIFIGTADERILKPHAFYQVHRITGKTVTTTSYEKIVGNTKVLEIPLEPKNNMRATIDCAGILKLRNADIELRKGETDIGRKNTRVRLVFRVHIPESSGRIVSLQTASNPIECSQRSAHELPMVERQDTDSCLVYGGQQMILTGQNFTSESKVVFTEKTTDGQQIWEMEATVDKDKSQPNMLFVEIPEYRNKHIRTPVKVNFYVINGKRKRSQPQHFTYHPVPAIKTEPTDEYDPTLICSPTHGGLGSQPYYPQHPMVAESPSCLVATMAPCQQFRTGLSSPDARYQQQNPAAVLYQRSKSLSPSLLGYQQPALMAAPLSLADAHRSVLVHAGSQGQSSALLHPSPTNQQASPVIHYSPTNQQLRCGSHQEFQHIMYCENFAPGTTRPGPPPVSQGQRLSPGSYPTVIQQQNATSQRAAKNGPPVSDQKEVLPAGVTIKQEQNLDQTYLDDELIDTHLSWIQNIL

B1: GST-cJun(1–317) (domain or fragment, human, UniProt P05412 1-317, looked up)
chain: MTAKMETTFYDDALNASFLPSESGPYGYSNPKILKQSMTLNLADPVGSLKPHLRAKNSDLLTSPDVGLLKLASPELERLIIQSSNGHITTTPTPTQFLCPKNVTDEQEGFAEGFVRALAELHSQNTLPSVTSAAQPVNGAGMVAPAVASVAGGSGSGGFSASLHSEPPVYANLSNFNPGALSSGGGAPSYGAAGLAFPAQPQQQQQPPHHLPQQMPVQHPRLQALKEEPQTVPEMPGETPPLSPIDMESQERIKAERKRMRNRIAASKCRKRKLERIARLEEKVKTLKAQNSELASTANMLREQVAQLKQKVMNHVN
Turning to B1, the binding result in assay [1] is recorded as “binds”.

B2: GST-NFATc2(688–921) (domain or fragment, human, UniProt Q13469-2 688-921, looked up)
chain: EYDPTLICSPTHGGLGSQPYYPQHPMVAESPSCLVATMAPCQQFRTGLSSPDARYQQQNPAAVLYQRSKSLSPSLLGYQQPALMAAPLSLADAHRSVLVHAGSQGQSSALLHPSPTNQQASPVIHYSPTNQQLRCGSHQEFQHIMYCENFAPGTTRPGPPPVSQGQRLSPGSYPTVIQQQNATSQRAAKNGPPVSDQKEVLPAGVTIKQEQNLDQTYLDDELIDTHLSWIQNIL
B2: in assay [2], the binding result is given as “binds”.
Regarding B3, the binding result in assay [3] was “binds”.
